First the molecules themselves.
B2: B7-1 expressed on transfected COS cells (ligand)
chain: VIHVTKEVKEVATLSCGHNVSVEELAQTRIYWQKEKKMVLTMMSGDMNIWPEYKNRTIFDITNNLSIVILALRPSDEGTYECVVLKYEKDAFKREHLAEVTLSVKADFPTPSISDFEIPTSNIRRIICSTSGGFPEPHLSWLENGEELNAINTTVSQDPETELYAVSSKLDFNMTTNHSFMCLIKYGHLRVNQTFNWNTTKQEHFPDNLLPSWAITLISVNGIFVICCLTYCFAPRCRERRRNERLRRESVRPV
notes: whole, on cells; also called CD80

The target of assay [1] is PD-1 on T cells (species not stated). The assay is described as follows: cell-based or functional assay.
The target of assay [2] is T1, human PD-1-Fc (human Ig gamma 1) (human, UniProt P01857 99-330 = IgG part).
T1 construct: domain: hinge-CH2-CH3; also called human PD-1 linked to IgG1
T1 sequence (P01857 other isoform, or with tags, fused parts or gaps limits assumed): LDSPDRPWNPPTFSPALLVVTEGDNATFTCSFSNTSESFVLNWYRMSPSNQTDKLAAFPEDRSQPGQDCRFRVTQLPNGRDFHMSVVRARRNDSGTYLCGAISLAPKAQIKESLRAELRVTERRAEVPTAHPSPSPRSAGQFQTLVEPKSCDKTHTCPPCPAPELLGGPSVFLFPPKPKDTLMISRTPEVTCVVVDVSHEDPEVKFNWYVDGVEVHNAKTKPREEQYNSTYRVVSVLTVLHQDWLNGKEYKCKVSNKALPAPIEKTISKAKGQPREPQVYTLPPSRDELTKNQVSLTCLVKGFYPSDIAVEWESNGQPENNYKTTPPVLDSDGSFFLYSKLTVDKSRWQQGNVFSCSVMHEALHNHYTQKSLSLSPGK
The assay is described as follows: in situ staining of transfected COS cell monolayers. Here is the method: In addition, an in situ assay of transfected COS cell monolayers was performed. […] Binding was visualized with chromogenic substrates 5-bromo-4-chloro-3-indolyl phosphate and nitro blue tetrazolium and light microscopy.

Assay [3] addresses T1, human PD-1-Fc (human Ig gamma 1). Description: flow cytometry on B7-1-transfected COS cells, anti-IgG-PE. Here is the method: COS cells were transfected with either B7-4M or B7-1 using LipofectAMINE transfection reagent. […] The cells were then analyzed by flow cytometry.
Assay [4] addresses T2, human B7-4M expressed on transfected COS or CHO cells (human, UniProt Q9NZQ7 19-290).
T2 construct: Full-length B7-4M cDNA expressed on COS or CHO cells; also called PD-L1
The assay is described as follows: flow cytometry on B7-4M-transfected COS cells. Background: In flow cytometry, cells or beads pass a laser one at a time.

Assay [5] deals with B2. The assay is described as follows: flow cytometry (FITC) on B7-1-transfected COS cells.
For assay [6], the target named is T1, human PD-1-Fc (human Ig gamma 1). The assay is described as follows: BIACORE, PD-1-Fc immobilized. In general terms: Surface plasmon resonance follows binding to a sensor surface in real time, without labels.
Assay [7] has as its target T3, human PD-1 fused to murine Ig gamma2a (human; murine, UniProt P01863 98-330 = IgG part, limits assumed).
T3 construct: domain: hinge-CH2-CH3; The Fc mutations are not specified; also called human PD-1 gamma 2a fusion protein; hPD-1-Ig
Description: flow cytometry on CHO-IA^d cells, hPD-1-Ig developed with goat anti-murine IgG2a-PE. Here is the method:
In addition, cells were stained separately with 5 μg/ml anti-IA^d-PE or B7.2-PE (Pharmingen, San Diego, Calif.). Following each step, cells were washed three times with PBS/1% BSA/0.02% sodium azide. After the final incubation, cells were fixed with 1% paraformaldehyde. Ten thousand events were analyzed on a FACSCalibar (Becton Dickinson, Mountain View, Calif.). All isotype controls were obtained from Pharmingen.

In assay [8] the target is T2, human B7-4M expressed on transfected …. Description: flow cytometry on CHO cells expressing human B7-4.
Assay [9] concerns the target T4, murine B7-4 expressed on transfected cells (murine, UniProt Q9EP73 19-290).
T4 construct: also called mouse B7-4; mB7-4
Description: flow cytometry on CHO cells expressing murine B7-4.

T2 sequence (Q9NZQ7 19-290): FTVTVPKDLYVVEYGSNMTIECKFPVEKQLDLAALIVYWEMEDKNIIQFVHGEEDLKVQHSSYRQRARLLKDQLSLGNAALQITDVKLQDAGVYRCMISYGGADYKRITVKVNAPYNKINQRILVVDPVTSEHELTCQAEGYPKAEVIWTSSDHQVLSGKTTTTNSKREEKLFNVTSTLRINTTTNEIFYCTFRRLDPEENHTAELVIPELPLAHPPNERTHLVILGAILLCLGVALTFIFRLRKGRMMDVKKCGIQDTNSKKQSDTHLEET
T4 sequence (Q9EP73 19-290 limits assumed): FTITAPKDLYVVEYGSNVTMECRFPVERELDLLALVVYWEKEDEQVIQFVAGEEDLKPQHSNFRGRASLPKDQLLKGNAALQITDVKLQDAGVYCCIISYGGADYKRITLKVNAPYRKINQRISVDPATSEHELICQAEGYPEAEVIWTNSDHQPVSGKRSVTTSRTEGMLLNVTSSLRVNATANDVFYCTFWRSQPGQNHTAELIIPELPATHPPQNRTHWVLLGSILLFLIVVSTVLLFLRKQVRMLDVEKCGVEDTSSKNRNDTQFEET
T3 sequence (P01863 other isoform, or with tags, fused parts or gaps limits assumed): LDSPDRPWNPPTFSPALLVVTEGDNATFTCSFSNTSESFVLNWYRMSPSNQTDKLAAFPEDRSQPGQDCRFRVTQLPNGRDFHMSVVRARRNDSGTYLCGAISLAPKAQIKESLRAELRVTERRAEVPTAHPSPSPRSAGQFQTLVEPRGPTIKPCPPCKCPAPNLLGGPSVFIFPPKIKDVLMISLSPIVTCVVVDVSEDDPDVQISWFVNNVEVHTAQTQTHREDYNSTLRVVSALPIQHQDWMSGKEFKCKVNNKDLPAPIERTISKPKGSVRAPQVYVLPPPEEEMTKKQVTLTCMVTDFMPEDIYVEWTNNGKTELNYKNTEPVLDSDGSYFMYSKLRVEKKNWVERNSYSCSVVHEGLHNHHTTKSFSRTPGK

“B7-4.Fc / PDL1.Ig fusion protein (species not stated) (Fc fusion)”: in [1], the % CD69+ T cells at 24 hours, anti-CD3/B7-4.Fc (anti-CD3 alone 26%) amounted to 26%; the % CD69+ T cells at 48 hours, anti-CD3/B7-4.Fc (anti-CD3 alone 46%) was 36%; the % CD69+ T cells at 72 hours, anti-CD3/B7-4.Fc (anti-CD3 alone 63%) was 42%; the % IL-2R+ (CD25) T cells at 24 hours, anti-CD3/B7-4.Fc (anti-CD3 alone 17%) was 12%. Further, in assay [1], the % IL-2R+ (CD25) T cells at 48 hours, anti-CD3/B7-4.Fc (anti-CD3 alone 29%) was determined as 17%; the % IL-2R+ (CD25) T cells at 72 hours, anti-CD3/B7-4.Fc (anti-CD3 alone 54%) stood at 15%; the % apoptotic T cells (propidium iodide and annexin positive) at 24 hours, anti-CD3/B7-4.Fc (anti-CD3 alone 3%) stood at 3%; the % apoptotic T cells at 48 hours, anti-CD3/B7-4.Fc (anti-CD3 alone 5%) was found to be 4%. The % apoptotic T cells at 72 hours, anti-CD3/B7-4.Fc (anti-CD3 alone 10%) in assay [1] came to 12%.

B1: B7-2 expressed on transfected COS cells (ligand)
chain: APLKIQAYFNETADLPCQFANSQNQSLSELVVFWQDQENLVLNEVYLGKEKFDSVHSKYMGRTSFDSDSWTLRLHNLQIKDKGLYQCIIHHKKPTGMIRIHQMNSELSVLANFSQPEIVPISNITENVYINLTCSSIHGYPEPKKMSVLLRTKNSTIEYDGVMQKSQDNVTELYDVSISLSVSFPDVTSNMTIFCILETDKTRLLSSPFSIELEDPQPPPDHIPWITAVLPTVIICVMVFCLILWKWKKKKRPRNSYKCGTNTMEREESEQTKKREKIHIPERSDEAQRVFKSSKTSSCDKSDTCF
notes: whole, on cells; also called CD86
Take B1: in assay [2], the binding result was “no binding”.

In the case of B2, the binding result in assay [3] is “no binding”.

B3: murine ICOS-his fusion protein (receptor, UniProt Q9WVS0 21-144, looked up)
chain: EINGSADHRMFSFHNGGVQISCKYPETVQQLKMRLFREREVLCELTKTKGSGNAVSIKNPMLCLYHLSNNSVSFFLNNPDSSQGSYYFCSLSIFDPPPFQERNLSGGYLHIYESQLCCQLKLWL
notes: not shown: his tag
As to B3, the binding result in [4] and in assay [5] was “no binding” throughout.

B4: soluble form of human B7-1 (ligand)
chain: VIHVTKEVKEVATLSCGHNVSVEELAQTRIYWQKEKKMVLTMMSGDMNIWPEYKNRTIFDITNNLSIVILALRPSDEGTYECVVLKYEKDAFKREHLAEVTLSVKADFPTPSISDFEIPTSNIRRIICSTSGGFPEPHLSWLENGEELNAINTTVSQDPETELYAVSSKLDFNMTTNHSFMCLIKYGHLRVNQTFNWNTTKQEHFPDN
notes: also called soluble B7-1
As to B4, the binding result in assay [6] is given as “no binding”.

B5: IA^d expressed on CHO transfectants (CHO-IA^d) (other)
alpha: EDDIEADHVGFYGTTVYQSPGDIGQYTHEFDGDELFYVDLDKKKTVWRLPEFGQLILFEPQGGLQNIAAEKHNLGILTKRSNFTPATNEAPQATVFPKSPVLLGQPNTLICFVDNIFPPVINITWLRNSKSVTDGVYETSFLVNRDHSFHKLSYLTFIPSDDDIYDCKVEHWGLEEPVLKHWEPEIPAPMSELTETVVCALGLSVGLVGIVVGTIFIIQGLRSGGTSRHPGPL
beta: GNSERHFVVQFKGECYYTNGTQRIRLVTRYIYNREEYVRYDSDVGEYRAVTELGRPDAEYWNSQPEILERTRAEVDTACRHNYEGPETSTSLRRLEQPNVAISLSRTEALNHHNTLVCSVTDFYPAKIKVRWFRNGQEETVGVSSTQLIRNGDWTFQVLVMLEMTPHQGEVYTCHVEHPSLKSPITVEWRAQSESARSKMLSGIGGCVLGVIFLGLGLFIRHRSQKGPRGPPPAGLLQ
notes: present on CHO-IA^d, CHO-IA^d/B7.2 and CHO-IA^d/B7.2/B7-4; copies: 1 + 1
Consider B5, for which the binding result in [7] is given as “no binding (tested: 5 ug/ml)”.

B6: murine PD-1-Fc (Fc fusion, UniProt Q02242 25-167, looked up)
chain: LEVPNGPWRSLTFYPAWLTVSEGANATFTCSLSNWSEDLMLNWNRLSPSNQTEKQAAFCNGLSQPVQDARFQIIQLPNRHDFHMNILDTRRNDSGIYLCGAISLHPKAKIEESPGAELVVTERILETSTRYPSPSPKPEGRFQ
notes: also called murine PD-1.Ig; mouse PD-1; not shown: Fc portion
Turning to B6, the binding result in assay [8] and in assay [9] was “binds” each time.

B7: soluble form of human B7-2 (ligand)
chain: APLKIQAYFNETADLPCQFANSQNQSLSELVVFWQDQENLVLNEVYLGKEKFDSVHSKYMGRTSFDSDSWTLRLHNLQIKDKGLYQCIIHHKKPTGMIRIHQMNSELSVLANFSQPEIVPISNITENVYINLTCSSIHGYPEPKKMSVLLRTKNSTIEYDGVMQKSQDNVTELYDVSISLSVSFPDVTSNMTIFCILETDKTRLLSSPFSIELEDPQPPPDHIP
notes: also called soluble B7-2
Consider B7, for which the binding result in assay [6] was “no binding”.

The record behind these values is US20030044768A1 (Dana-Farber, published 2003).
